Usually EC50 stands for the concentration at which the effect is half-maximal.

Consider 13 molecules from patent US20210230266A1 (SINGAPORE HEALTH SERVICES PTE, published 2021).

Changes are numbered by the printed parent chain.

T1: Human IL-11 (human, UniProt P20809 22-199)
T1 sequence: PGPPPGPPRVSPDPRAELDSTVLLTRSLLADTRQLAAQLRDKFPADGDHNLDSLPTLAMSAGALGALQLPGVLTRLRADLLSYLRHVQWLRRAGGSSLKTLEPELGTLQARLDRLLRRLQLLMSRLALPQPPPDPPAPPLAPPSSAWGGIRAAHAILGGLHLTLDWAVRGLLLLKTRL

T2: Mouse IL-11 (mouse, UniProt P47873 22-199, limits assumed)
T2 construct: also called murine IL-11; recombinant murine IL-11
T2 sequence (looked up): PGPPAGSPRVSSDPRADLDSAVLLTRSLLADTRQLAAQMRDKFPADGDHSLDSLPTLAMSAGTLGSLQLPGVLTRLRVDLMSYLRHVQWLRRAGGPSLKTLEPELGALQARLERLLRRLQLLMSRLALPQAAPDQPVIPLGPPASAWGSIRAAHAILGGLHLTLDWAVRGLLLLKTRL

B1: YU100-F01 (antibody)
chain: QVQLVQSGGGVVQPGRSLRLSCAASGFTFSSYGMHWVRQAPGKGLEWVAVISYDGSNKYYADSVKGRFTISRDNSKNTLYLQMNSLRAEDTAVYYCAKIGATDPLDYWGQGTLVTVSSGSASAPKLEEGEFSEARVQSALTQPASVSGSPGQSITISCTGTGSDVGAYDYVSWYQQHPGKAPKLMIYDVNNRPSGVSNRFSGSKSGNTASLTISGLQAEDEAEYYCSSFATSISWVFGGGTRLTVL
B2: YU100-E12 (antibody)
chain: QVQLVESGGGVVQPGRSLRLSCAASGFTFSSYGMHWVRQAPGKGLEWVAVISYDGSNKYYADSVKGRFTISRDNSKNTLYLQMNSLRAEDTAVYYCAKIGATDPLDYWGQGTLVTVSSGSASAPKLEEGEFSEARVQSALTQPASVSGSPGQSITISCTGTSSDVGGYNYVSWYQQHPGTAPKLMIYDVSNRPSGVSNRFSGSKSGNTASLTISGLQAEDEADYYCSSYTSSTTWVFGGGTKLTVL
B3: YU100-H11 (antibody)
chain: B2 chain with E6Q, T180K, S227C, T230A, S231G, T233Y
B4: YU100-G07 (antibody)
chain: B2 chain with G167A, N169D, T180K, S190T, S227A, S231R, T233S, T234V
B5: YU100-F02 (antibody)
chain: EVQLVESGGGVVQPGRSLRLSCAASGFTFSSYGMHWVRQAPGKGLEWVAVISYDGSNKYYADSVKGRFTISRDNSKNTLYLQMNSLRAEDTAVYYCAKIGATDPLDYWGQGTLVTVSSGSASAPKLEEGEFSEARVQSALTQPRSVSGSPGQSVTISCTGTSSDVGGYNYVSWYQQHPGKAPKLMIYDVTKRPSGVPDRFSGSKSGNTASLTISGLQADDEADYYCCSYAGSYTWIFGGGTKLTVL
B6: YU100-H06 (antibody)
chain: B5 chain with E1Q, V136I, D219E, C227S, I236V
B7: YU100-G09 (antibody)
chain: B5 chain with S162I, D219E, D223G, C227S, I236V
B8: YU100-G01 (antibody)
chain: B5 chain with E1Q, E6Q, G148A, G167A, I186L, T190N, G215R, D219E, I236V
B9: YU100-H05 (antibody)
chain: QVQLVESGGGVVQPGRSLRLSCAASGFTFSSYGMHWVRQAPGKGLEWVAVISYDGSNKYYADSVKGRFTISRDNSKNTLYLQMNSLRAEDTAVYYCAKIGATDPLDYWGQGTLVTVSSGSASAPKLEEGEFSEARVQAVLTQPRSVSGSPGQSITISCTGTGSNVGGYNYVSWYQQHPGQAPKLMIYDVSKRPSGVPDRFSGSKSGNTASLTISGLQAEDEADYYCCSYAGTYTWVFGGGTKLTVL
B10: YU100-E11 (antibody)
chain: QVQLVESGGGVVQPGRSLRLSCAASGFTFSSYGMHWVRQAPGKGLEWVAVISYDGSNKYYADSVKGRFTISRDNSKNTLYLQMNSLRAEDTAVYYCARIMGYDYGDYDVVDYWGQGTLVTVSSGSASAPKLEEGEFSEARVQSALTQPRSVSGSPGQSVTISCTGTSSDVGGYNYVSWYQQHPGKAPKLMIYDVSKRPSGVPDRFSGSKSGNTASLTISGLQAEDEADYYCCSYAGSYTWVFGGGTKLTVL
B11: YU100-H04 (antibody)
chain: B10 chain with G33A, R149A, V159I, V170I, G172V
B12: YU100-H09 (antibody)
chain: B10 chain with E6Q, G33A, R149A, V159I, K196N, P202S, D203N
B13: YU100-H02 (antibody)
chain: B10 chain with V5Q, E6Q, G153R, G172T, S237F

The target of the first assay is T1, Human IL-11. Briefly: cell-based or functional assay.
In the case of B1, the “MMP2 production, Experiment 1 (human atrial fibroblasts + TGFB1)” value was 52.8 ng/mL and the “MMP2 production, Experiment 2 (human atrial fibroblasts + TGFB1)” value amounted to 39.9 ng/mL.

On to B2, for which the “MMP2 production, Experiment 1 (human atrial fibroblasts + TGFB1)” value came to 56 ng/mL and the “MMP2 production, Experiment 2 (human atrial fibroblasts + TGFB1)” value was 47.9 ng/mL.

Consider B3, for which the “MMP2 production, Experiment 1 (human atrial fibroblasts + TGFB1)” value was determined as 53.7 ng/mL and the “MMP2 production, Experiment 2 (human atrial fibroblasts + TGFB1)” value amounted to 45.5 ng/mL.

On to B4, for which the “MMP2 production, Experiment 1 (human atrial fibroblasts + TGFB1)” value came to 59 ng/mL and the “MMP2 production, Experiment 2 (human atrial fibroblasts + TGFB1)” value was 49.7 ng/mL.

For B5, the “MMP2 production, Experiment 1 (human atrial fibroblasts + TGFB1)” value is 51.2 ng/mL and the “MMP2 production, Experiment 2 (human atrial fibroblasts + TGFB1)” value is 43.5 ng/mL.

Turning to B6, the “MMP2 production, Experiment 1 (human atrial fibroblasts + TGFB1)” value is 52.3 ng/mL and the “MMP2 production, Experiment 2 (human atrial fibroblasts + TGFB1)” value was 43.9 ng/mL.

Regarding B7, the “MMP2 production, Experiment 1 (human atrial fibroblasts + TGFB1)” value is 59.9 ng/mL and the “MMP2 production, Experiment 2 (human atrial fibroblasts + TGFB1)” value came to 47.5 ng/mL.

Regarding B8, the “MMP2 production, Experiment 1 (human atrial fibroblasts + TGFB1)” value came out at 56.6 ng/mL and the “MMP2 production, Experiment 2 (human atrial fibroblasts + TGFB1)” value was found to be 49.7 ng/mL.

As for B9, the “MMP2 production, Experiment 1 (human atrial fibroblasts + TGFB1)” value stood at 57.1 ng/mL and the “MMP2 production, Experiment 2 (human atrial fibroblasts + TGFB1)” value came out at 47.8 ng/mL.

As for B10, the “MMP2 production, Experiment 1 (human atrial fibroblasts + TGFB1)” value is 49.1 ng/mL and the “MMP2 production, Experiment 2 (human atrial fibroblasts + TGFB1)” value was 41.9 ng/mL.

On to B11, for which the “MMP2 production, Experiment 1 (human atrial fibroblasts + TGFB1)” value was 58.5 ng/mL and the “MMP2 production, Experiment 2 (human atrial fibroblasts + TGFB1)” value stood at 48.7 ng/mL.

Regarding B12, the “MMP2 production, Experiment 1 (human atrial fibroblasts + TGFB1)” value turned out to be 52.9 ng/mL and the “MMP2 production, Experiment 2 (human atrial fibroblasts + TGFB1)” value stood at 39.6 ng/mL.

B13: the “MMP2 production, Experiment 1 (human atrial fibroblasts + TGFB1)” value worked out at 57.5 ng/mL and the “MMP2 production, Experiment 2 (human atrial fibroblasts + TGFB1)” value is 51.3 ng/mL.

The target in a further assay is T1, Human IL-11. Briefly: ELISA. Here is the method:
(§1) The soluble scFv were produced by recombinant expression in E. coli, and analysed for their ability to bind to human IL-11 and murine IL-11 by ELISA. Briefly, the respective antigen was coated to wells of an ELISA plate, the cell culture supernatant containing the respective scFv was added at a 1:2 dilution, and binding was detected.
In the case of B1, the “hIL11 - average signal” value came to 0.464.

For the molecule B2, the “hIL11 - average signal” value was determined as 0.426.

With B3, the “hIL11 - average signal” value was 0.724.

B4: the “hIL11 - average signal” value was 0.203.

For the molecule B5, the “hIL11 - average signal” value came out at 0.361.

On to B6, for which the “hIL11 - average signal” value was determined as 0.181.

Regarding B7, the “hIL11 - average signal” value is 0.802.

In the case of B8, the “hIL11 - average signal” value was determined as 0.205.

B9: the “hIL11 - average signal” value is 0.163.

As for B10, the “hIL11 - average signal” value was determined as 0.268.

On to B11, for which the “hIL11 - average signal” value was found to be 0.508.

For the molecule B12, the “hIL11 - average signal” value is 0.4.

For B13, the “hIL11 - average signal” value worked out at 0.309.

In another assay the target is T2, Mouse IL-11. Briefly: ELISA. Here is the method: as §1
Consider B1, for which the “mIL11 - average signal” value came to 0.528.

On to B2, for which the “mIL11 - average signal” value amounted to 0.5.

As for B3, the “mIL11 - average signal” value is 0.629.

Take B4: the “mIL11 - average signal” value was determined as 0.206.

As for B5, the “mIL11 - average signal” value is 0.303.

For the molecule B6, the “mIL11 - average signal” value is 0.328.

As to B7, the “mIL11 - average signal” value worked out at 0.985.

In the case of B8, the “mIL11 - average signal” value came to 0.31.

As for B9, the “mIL11 - average signal” value was determined as 0.461.

For B10, the “mIL11 - average signal” value was 0.435.

Regarding B11, the “mIL11 - average signal” value turned out to be 0.393.

B12: the “mIL11 - average signal” value was determined as 0.668.

With B13, the “mIL11 - average signal” value was determined as 0.188.

A further assay concerns the target T1, Human IL-11. Briefly: ELISA on coated recombinant human IL-11 (100 ng/well), scFv-Fc. Here is the method:
The light chain shuffled anti-IL-11 antibodies were analysed to determine the EC50 for binding to human IL-11 by ELISA according to standard methods. Briefly, wells of microtiter plates were coated with recombinant human IL-11 (100 ng/well), scFv-Fc comprising the VH and VL domains of the clones were added in a dilution series and antibody binding was detected using a polyclonal antibody detection system.
On the technique in general: An ELISA detects its analyte on a solid surface through an enzyme-linked reagent.
B1: the EC50 amounted to 0.018 mg/L.

In the case of B2, the EC50 amounted to 0.016 mg/L.

Take B3: the concentration giving a half-maximal response (EC50) was 0.015 mg/L.

Take B4: the EC50 came out at 0.018 mg/L.

Take B5: the EC50 came to 0.018 mg/L.

As for B6, the EC50 is 0.013 mg/L.

Take B7: the EC50 came out at 0.014 mg/L.

For the molecule B8, the EC50 stood at 0.019 mg/L.

In the case of B9, the EC50 came out at 0.022 mg/L.

Regarding B10, the EC50 is 0.028 mg/L.

On to B11, for which the concentration for a half-maximal effect (EC50) came out at 0.027 mg/L.

For the molecule B12, the EC50 amounted to 0.028 mg/L.

Regarding B13, the EC50 came to 0.032 mg/L.
